Experimental findings from US20230288413A1 are described below.

In assay [1] the target is anti-S1 fragment of SARS-CoV-2's spike protein antibody. The assay is described as follows: lateral flow dipstick; capture antibody trapped in 5% acrylamide hydrogel; S1-coated gold nanoparticles as reporter (FIG. 3, panel b).
The target is the same in assay [2]. Briefly: lateral flow dipstick; capture antibody immobilized by physical adsorption; S1-coated gold nanoparticles as reporter (FIG. 3, panel a).
For assay [3] the target is unchanged. Briefly: lateral flow dipstick; separate experiment with improved hydrogel and streptavidin; S1-coated gold nanoparticles as reporter (FIG. 3, panel d).
The target is the same in assay [4]. The assay is described as follows: lateral flow dipstick; capture antibody held by streptavidin trapped in the hydrogel; S1-coated gold nanoparticles as reporter (FIG. 3, panel c).

With “biotin-SP-conjugated anti-human IgG Fc (antibody)”, the limit of detection was 1 ng in assay [1], 10 ng in assay [2], 0.05 ng in assay [3] and 0.1 ng in assay [4].
